B1: OR4K15 (parent)
chain: GUUAACGGUCAUAGGCCAUGGAAACUAGGAGCACCAUUUCGCUGCCAGUGAAGAAAUGAACAAAGAAAAUCUGGGCCAGGCAGGCAUCAAAAGAAAUAGUCUUGCGCUCAACCAGAAAGUCUGUAAUCAUUUUAAGGGUA

Variants of: B1
Assay: self-cleavage, relative activity (ratio to wild type); higher = more cleavage; in vitro, sequencing; the parent is a self-cleaving ribozyme

In order of rising self-cleavage:
1. GUUAACGGUCAUAGGCCAUGGAAACUAGGAGCACCAUUUCGCUGCCAGUGAAGAAAUGAACAAAGAAAAUCUGGGCCAGGCAGGCAUCAAGAGAAAUAGUCUUGGGCUCAACCAGAAAGUCUGUAAUCAUUUUAAGGGUA [A91G C105G]  0.01
2. GUUAACGGUCAUAGGCCAUGGAAACUAGGAGCACCAUUUCGCUGCCAGUGAAGAAAUGAACAAAGAAAAUCUGGGCCAGGCAGGCAUCAAGAGAAAUAGUCUUGCGCUCAACCCGAAAGUCUGUAAUCAUUUUAAGGGUA [A91G A114C]  0.02
3. GUUAACGGUCAUAGGCCAUGGAAACUAGGAGCACCAUUUCGCUGCCAGUGAAGAAAUGAACAAAGAAAAUCUGGGCCAGGCAGGCAUCAAGAGAAAUAGUCUUGAGCUCAACCAGAAAGUCUGUAAUCAUUUUAAGGGUA [A91G C105A]  0.03
4. GUUAACGGUCAUAGGCCAUGGAAACUAGGAGCACCAUUUCGCUGCCAGUGAAGAAAUGAACAAAGAAAAUCUGGGCCAGGCAGGCAUCAACAGAAAUAGUCUUGCGCUCAACCUGAAAGUCUGUAAUCAUUUUAAGGGUA [A91C A114U]  0.05
5. GUUAACGGUCAUAGGCCAUGGAAACUAGGAGCACCAUUUCGCUGCCAGUGAAGAAAUGAACAAAGAAAAUCUGGGCCAGGCAGGCAUCAAGAGAAAUAGUCUUGCGCUCGACCAGAAAGUCUGUAAUCAUUUUAAGGGUA [A91G A110G]  0.11
6. GUUAACGGUCAUAGGCCAUGGAAACUAGGAGCACCAUUUCGCUGCCAGUGAAGAAAUGAACAAAGAAAAUCUGGGCCAGGCAGGCAUCAAGAGAAAUAGUCUUGCGCUCAACCAGUAAGUCUGUAAUCAUUUUAAGGGUA [A91G A116U]  0.12
7. GUUAACGGUCAUAGGCCAUGGAAACUAGGAGCACCAUUUCGCUGCCAGUGAAGAAAUGAACAAAGAAAAUCUGGGCCAGGCAGGCAUCAAGAGAAAUAGUCUUGCGCUCAACCAGAAAGUCUGUGAUCAUUUUAAGGGUA [A91G A125G]  0.16
8. GUUAACGGUCAUAGGCCAUGGAAACUAGGAGCACCAUUUCGCUGCCAGUGAAGAAAUGAACAAAGAAAAUCUGGGCCAGGCAGGCAUCAAGAGAAAUAGUCUUGCGCUUAACCAGAAAGUCUGUAAUCAUUUUAAGGGUA [A91G C109U]  0.4
9. GUUAACGGUCAUAGGCCAUGGAAACUAGGAGCACCAUUUCGCUGCCAGUGAAGAAAUGAACAAAGAAAAUCUGGGCCAGGCAGGCAUCAAGAGAAAUAGUCUUGCGCUCAACCAGAAAGUCUGUAAUCACUUUAAGGGUA [A91G U130C]  0.54
10. GUUAACGGUCAUAGGCCAUGGAAACUAGGAGCACCAUUUCGCUGCCAGUGAAGAAAUGAACAAAGAAAAUCUGGGCCAGGCAGGCAUCAAGAGAAAUAGUCUUGCGCUCAACCAGAAAGUCUGUAGUCAUUUUAAGGGUA [A91G A126G]  0.55
11. GUUAACGGUCAUAGGCCAUGGAAACUAGGAGCACCAUUUCGCUGCCAGUGAAGAAAUGAACAAAGAAAAUCUGGGCCAGGCAGGCAUCAACAGAAAUGGUCUUGCGCUCAACCAGAAAGUCUGUAAUCAUUUUAAGGGUA [A91C A98G]  0.56
12. GUUAACGGUCAUAGGCCAUGGAAACUAGGAGCACCAUUUCGCUGCCAGUGAAGAAAUGAACAAAGAAAAUCUGGGCCAGGCAGGCAUCAAGAGAAAUAGUCUUGCGCUCAACCAGAAAGUCUGCAAUCAUUUUAAGGGUA [A91G U124C]  0.62
13. GUUAACGGUCAUAGGCCAUGGAAACUAGGAGCACCAUUUCGCUGCCAGUGAAGAAAUGAACAAAGAAAAUCUGGGCCAGGCAGGCAUCAAGAGAAAUAGUCAUGCGCUCAACCAGAAAGUCUGUAAUCAUUUUAAGGGUA [A91G U102A]  0.67
14. GUUAACGGUCAUAGGCCAUGGAAACUAGGAGCACCAUUUCGCUGCCAGUGAAGAAAUGAACAAAGAAAAUCUGGGCCAGGCAGGCAUCAAGAGACAUAGUCUUGCGCUCAACCAGAAAGUCUGUAAUCAUUUUAAGGGUA [A91G A95C]  0.94
15. GUUAACGGUCAUAGGCCAUGGAAACUAGGAGCACCAUUUCGCUGCCAGUGAAGAAAUGAACAAAGAAAAUCUGGGCCAGGCAGGCAUCAAGAGAAAUAGUCUUGCGCUCAACCAGAAAGUCUGUAAUCAUUUUAAGGAUA [A91G G138A]  0.95
16. GUUAACGGUCAUAGGCCAUGGAAACUAGGAGCACCAUUUCGCUGCCAGUGAAGAAAUGAACAAAGAAAAUCUGGGCCAGGCAGGCAUCAUAAGAAAUAGUCUUGCGCUCAACCAGAAAGUCUGUAAUCAUUUCAAGGGUA [A90U U133C]  1.61
17. GUUAACGGUCAUAGGCCAUGGAAACUAGGAGCACCAUUUCGCUGCCAGUGAAGAAAUGAACAAAGAAAAUCUGGGCCAGGCAGGCAUCAAGAGAGAUAGUCUUGCGCUCAACCAGAAAGUCUGUAAUCAUUUUAAGGGUA [A91G A95G]  1.76
18. GUUAACGGUCAUAGGCCAUGGAAACUAGGAGCACCAUUUCGCUGCCAGUGAAGAAAUGAACAAAGAAAAUCUGGGCCAGGCAGGCAUCAAGAGAAAUAGUCUUGCGCUCAACCAGAAAGUCUGAAAUCAUUUUAAGGGUA [A91G U124A]  1.78
19. GUUAACGGUCAUAGGCCAUGGAAACUAGGAGCACCAUUUCGCUGCCAGUGAAGAAAUGAACAAAGAAAAUCUGGGCCAGGCAGGCAUCAAGAAAAAUAGUCUUGCGCUCAACCAGAAAGUCUGUAAUCAUUUUAAGGGUA [A91G G93A]  1.82
20. GUUAACGGUCAUAGGCCAUGGAAACUAGGAGCACCAUUUCGCUGCCAGUGAAGAAAUGAACAAAGAAAAUCUGGGCCAGGCAGGCAUCAACAGAAAUAGUCUUGCGCUCAACCAGAAAGUCUGUAAUCAUAUUAAGGGUA [A91C U131A]  2.16

— the RNAGym collection of RNA variant scans (doi:10.7554/elife.90254)
